The values below come from article PMC12300839, “Noncovalently Immobilized Glucose Oxidase/Horseradish Peroxidase Cascade on Polyamide Supports for Eco-Friendly Polyaniline Synthesis” (Molecules, 2025).

What is called Km is the concentration of substrate that gives half-maximal velocity. What is called Vmax is the rate approached at saturating substrate.

Substrate in the data set: OC[C@H]1OC(O)[C@H](O)[C@@H](O)[C@@H]1O
In words: purified protein. The class given is biochemical, Aspergillus niger. The conditions noted are these: apparent Km of the whole free GOx/HRP cascade, not of isolated GOx, authors call the kinetics governed by HRP, glucose 50-150 µM, dissolved O2, constant TMB, 0.1 M acetate pH 4.5, room temperature.

B1: glucose oxidase (GOx) (Aspergillus niger) (protein)
chain: LPHYIRSNGIEASLLTDPKDVSGRTVDYIIAGGGLTGLTTAARLTENPNISVLVIESGSYESDRGPIIEDLNAYGDIFGSSVDHAYETVELATNNQTALIRSGNGLGGSTLVNGGTWTRPHKAQVDSWETVFGNEGWNWDNVAAYSLQAERARAPNAKQIAAGHYFNASCHGVNGTVHAGPRDTGDDYSPIVKALMSAVEDRGVPTKKDFGCGDPHGVSMFPNTLHEDQVRSDAAREWLLPNYQRPNLQVLTGQYVGKVLLSQNGTTPRAVGVEFGTHKGNTHNVYAKHEVLLAAGSAVSPTILEYSGIGMKSILEPLGIDTVVDLPVGLNLQDQTTATVRSRITSAGAGQGQAAWFATFNETFGDYSEKAHELLNTKLEQWAEEAVARGGFHNTTALLIQYENYRDWIVNHNVAYSELFLDTAGVASFDVWDLLPFTRGYVHILDKDPYLHHFAYDPQYFLNELDLLGQAAATQLARNISNSGAMQTYFAGETIPGDNLAYDADLSAWTEYIPYHFRPNYHGVGTCSMMPKEMGGVVDNAARVYGVQGLRVIDGSIPPTQMSSHVMTVFYAMALKISDAILEDYASMQ
notes: commercial native enzyme, type VIII (Merck/Sigma Aldrich), free in solution, ~160 kDa, FAD-containing
Turning to B1, the Km worked out at 275 µM and the maximum rate (Vmax) worked out at 696 µM/min/mg.
